In the DeepSol protein solubility set:

Test: soluble on expression in E. coli; label from the status in PepcDB or PDB records

Sequence | soluble on expression in E. coli
MYSTLEQLTKHPVFYHFAEISKIPRGSGNEKEISDYLVGFAKERNLEVIQDEALNVIIKKEATTGYENVPAIIIQGHMDMVCEKNQATVHDFEKDPIELRIIGDMLYANQTTLGADNGIAVAYALALLDSKEIPHPALEVVITTEEETTMGGAFAIDPNHFEGKIFINIDSEEDHKLLVSSAGGAKAVETIPVIWDETPANMDAYRLYVGGLKGGHSGMEIDKQRGNANKVLGRVLRDLSAHTEFNISEVHGGLKTNAIPRESVATLLIRTEDVGQVEEKLESWTRVLQEEMRAVDPDVHVTLTKLDETVEKVFAQETQKQLISSLFLIPNGIQSMSMDIKGLVESSTNLGVIETLQDEIKLRNEVRSSVSSLKQHVAEEIKYIAELVGATFEIESEYPEWPYNPNSQIRNLFEKVHQEKYNKEIEIFAVHAGIECSAFVQKMPELDAISFGPDIFNVHTPDEHISISSVVNNWGFFIDVMKGTKELAK | not soluble
MNKILLQCDNLCKRYQEGTVQTDVLHDVSFSIGEGEMMAIVGSSGSGKSTLLHLLGGLDTPTSGDVIFSGQPMSKLSSAAKAELRNQKLGFIYQFHHLLPDFTALENVAMPLLIGKKKPAEIDARAREMLHAVGLEHRATHRPSELSGGERQRVAIARALVNNPRLVLADEPTGNLDARNADSIFELLGELNRLQGTAFLVVTHDLQLAKRMSRQLEMRDGRLTAELSLMGAE | not soluble
GSHMENYHAGPGISKSQLDDIADTPALYLWRKNAPVDTTKTKTLDLGTAFHCRVLELEEFSNRFIVAPEFNRRTNAGKEEEKAFLMECASTGKTVITAEEGRKIELMYQSVMALPLGQWLVESAGHAESSIYWEDPETGILCRCRPDKIIPEFHWIMDVKTTADIQRFKTAYYDYRYHVQDAFYSDGYEAQFGVQPTFVFLVASTTIECGRYPVEIFMMGEEAKLAGQQEYHRNLRTLSDCLNTDEWPAIKTLSLPRWAKEYAND | soluble
SHLVVESFPSYRDVTLFEGKRVSFYKRAQILVADTWSVLEGKGDGCFKDISSITMFADYRLPQVLAHLGALKYSDDLLKKLLKGEMLSYGDRQEVEIRGCSLWCVELIRDCLLELIEQKGEKPNGEINSILLDYYLWDYAHDHREDMKGIPFHRIRCIYY | soluble
MDVSEGGVTVSVPTASGGGEGAADDVFFNATQELNRDLTVATLAAFREREPRAASYLDAMTASGIRGVRAANAGWDVTMADVDADAVELATSNLARNGLDGEVVARDANSLLHDHDRVLDVVDIDPFGSPMPFADAAFANARNLVCVTATDTAPLCGAHFESGVRKYSATPRNTNYHAEMGLRILLGALARTAARYDVGVTPILSHVSDHYVRTYLELDHRATDANAAVEQVGHVYHCQQCLSRDHEYGLVAAPRAECPRCGGHQVLTAGPLWLGPAHEEAFAASVREQLTREMGEASQAFHLLQTIEGELHEPTHYDQHRLYSQWGEPAVGMAEFLDQLRDAGLRASRTHFGGTTFKTDGGLAEVEAAVLLEHHHHHH | soluble
IGFRFDDSKGTVFIDGDVEEITGYSTEDFLSHRVKWADLVLPEDQYLIFERINRSVSNPDHSIETEYRIKRKNGEIRWIREFLQKFPEESKNSRQFQGFIHDITGRKKA | not soluble
MKLTIIRLQHFSDQDRIDLGKIWPSQDLSTLTLDENHRLYAAHFNERLLGAVRVTLRGVEGELSDLCVREVTRRRGVGQYLVEETLRDNPAINSWRVADHGVEDRGVMAAFMQALGFSAQQ | not soluble
MGSDKIHHHHHHMVKTSQLPAVDRTVPLEQISQFAEKVTIFTDELRETILAPRPRKTAPIFKTGEIAEMCNISHSQVQYLATKGDGELPPGTAAGTGRTRTFTLQEARTWVQKVSDIYQTPLVTGTREPEGKIIITAQLKGGSAKTTTTMCLAQGLTLRGRKVLVVDLDPQASLSELCGLYAEKDVSPEDSVLPYIYDQQIEGGLQSRVQSTYWDGLDLIPAHTELIGAEFHLPAMQKIKPGFRFWTVLREGLEPLRKHYDYILMDTSPSLSYMNLNALLAADAMVMPMVPENLDFISSLSFWRLFSDVSKSFIKYEADKKYDFVSLLLSRVDYGRTSSAPIVRAWAQSAYESWLHSIEVPASSVMSTGALAFSTVFDVSSTHSAAKSLQRVRQPIVDYCRWLDEIYAEKWRSAQ | not soluble
MGSDKIHHHHHHMQQEQRILFKNDTGDYAAVAAGEESVLQAGLRQSVPLNYHCASGSCGSCKARLIQGALKVHTGTDFIQVSHTADQVCEYPEVHLCQSHAVSDCVFEALYDKNVPPDLVTPKHYAASLSDVRPLGSGLYRLLVDFDDSIRFLPGQYVMLATEAGGRARAYSVANFAQDSRQLEFILSCNPNGAMSPQLCDINNIGMQLQGYGPLGKAYIRPSKDKEIVMLVGGSGVSVALSTLEWAISSHYIDDRHLTIFWGVRDTSPIDLIGVLNRYAAVHSNLRVAVCSDISPSVQDRVRFPHIEFFTGYPADHIVNDASISWEGKEVYISGPPPMVDHTVRQLMINTEIDALDIKCDSFV | not soluble
MNIVIAAVGGQGAVLTSKILGTLAQNLGKDVKVSEVHGMSQRGGSVVAYVKFGDKVYSPVVEKGTADIVLAFEMLEGARYVDYLKENGKLVVNTQRIDPMPVITGDMEYPADLGEKLEELNIGYIPVDALSLAKNAGTIKAVNVALIGVLAQNSNIKKEEWIKAIKDTVPEKFLELNLKAFELGYNL | not soluble
MSLSSDSQEIRRSILSKWHKTLSKYGNLFSSDTISGTSPPSVFVGSYNYPKVFVGPMVPPIHGDTSLLDSPEKWKGRSLEEIINFRLNLVRGIHKTGIEHTEGRYIENLQEITMSEKPTDLDLVFMKNTSSNISMDGESAPFGPTGEIKSAKFSGSSSTKPIEKIFYDKDMKAQDAVLKLYNSGIEISKIQKCFSIGMLGKKRKLVPTKWSITATDDIISKSIVKEILENSIIDTCKVFSYEHLGNVFSVILFPHRWIFEMIEGWYSNGILGFGSDSEDARGIDHPPRIAGAYFAAKLGVSEYLLKNKIQAGVLIFREIRPEYAIPVGVWQVREGIREAMKQKPQIVSDFNHALNLASAKTSVSKKEWIVNGDMINRVRQKTILDFMEGHHHHHH | not soluble
MGSDKIHHHHHHMEEIKFPTNESGLCMNEKGVPWEDLKIVQAIADSGSLAGAGRTLGISHATVFRRLGALESRLGVRLFERHRTGYVPTLAGDDLATTAARVALDIEAVERRLMGRDARLSGTLRVTTTDTLLMGMLSDELAGFQRTYPHIVLEVEVSNRTYDLSRRDADVAIRPTSAPPETLIGRQVGQIAQAVYVSRCHRETSGWVGPDPHLGYPVLERWMARQGVDAQCRYHVDSMLGMLAGVRSGMGRGVLPCYLADMADDLVRASEPLPELQTELWLLTHPDLRNTARVQALFAYLSDSLKARQASLLGTMAAS | not soluble
MGSDKIHHHHHHMMPYLAKILLYPVKSLDGVEVEKVGVLASGALQHDREFAIFDERGKFVNGKRHAKIHLLRVQFALFNRTISLQIPGGNSQQVFHLDEERQALEATLSNYFEFAVTLRQNSLMGFPDDTHSPGPTVISTATLTEVASWFPGLSVDEIRRRMRANIEIDGVPAFWEDRLFSEQGDLVSFRVGDVDFFGANPCQRCIVPTRDSYSGEAYPSFQKIFATQRQATLPNWVASSPFNHFYRLSVNTQLPISSAGKILQIGDGVDIFP | not soluble
VKSLFLLVLGNTEISTIPGISVAGATPELTKITPVADAEYLFYEKPLTIDTIPVTPEGHPTPAIITKAARELSNFPILVVRGGTYLAPLIPHVHISNVVGRDFRREPALPEVEVIIERAKLLGKELEKIANEIVIGESTPGGTTTAQAILWALGYEAKTSSASPENPQELKEKVIKEGFKRVGIEKGGLKDKPLEALKEFGDPMIATVLGLSLGFGGDVVLAGGTQMLAVSALLKSLGEDLSRFMIATTRWVVEDPSATFIETAREIGIISYVAELDFSKSKFKGLRDYERGYVKEGVGAGGATWLAV | not soluble
MGSDKIHHHHHHMNLNIAICDDDTNDIAIMKKNILQYTIETDNNIVVSSYFSASDILSDYKNHLYQIVLLDIEMPDINGMELARQLRDMDDDLLIIFTTSYPEYMHESFEVQPFQFITKPVDYTAIYKLFNNIIKKLYRNSKSIVIIDTDGEKNFVPLSDLLYISSMKENKLHLRYQLTDRALISKGTLSEAEKRLSSHGFVSPSRGFLVNLHQIRSITSTRLLLNNGFELPISRRRSKELQNIYSQHIINIL | not soluble
MGSDKIHHHHHHMDMLSFELIRDGNRPLYEQLYQQIRQEIIEGRLAYGTKLPSKRKLGQFLNLSQTTIELAYQQLVAEGYVESVSRKGYFVLAYEELAYVKTTPLPTSQRSNQQPAMRYDFHPSKIDGSSFPFSRWRKHAKDVIDEQHQSLVSLGHPQGDLSLRLEIATYLYHSRGVVCSPEQIIIGSGVEQLLPHIVFLLGKTTTYGIEDPGYHATRLILKSHERSAVPIPVDQNGLVIPSLVQSPVDVMYVTPAHQFPSGSILSVNRRRQLLNWAAASDRRYIIEDDYDSEFRYSGKSIPSLHSMDSERVIYLSTFSKSLMPSLRIGYMVLPRPLLERYQTEFPYYTCSVSRFDQTILTRFMKEGDFEKHLNRMRKIYRRKLDVVVHALRDVPFLKLTGESAGLHVVLSVSNGMGEQELLRRAKDSSIQVYGLSDYAQLPLSTAYPQIVLGFASLTEQQLMQGLTELVTAWQLK | not soluble
MGSDKIHHHHHHMKQEVKGVQGQEYEIGLTVGDNRSDIFTFVISPESQIRKWEYVYIKAGETNLLGRIEDLLSKSDLLNDRMDYESVKKYTTSNIKDNVDICVVKIIGAVKDGIISRSRYLIRPGQPVFRATKEMLESIFKFDDQRSLEIGYLADQPDVKIFANINGLRRHLSIIAQTGAGKSHTAGVLMEELLKKGASIIVLDPHADYVLMKNSDKAIYRDNIKVFRTPMSTGRYTAKLGKVDEFTIKFQDLNDEEVREIMGIHENFVNQSKIVKDVMEKLTGRKDVDEFIQKSEQIDTEKRIAARIKYLKKIKAIFGDKTTDVSEYLAPSRMSVIDLSGLDQSLANYFAYKVISQAYDAKVTGSFEYPVFLFIEEAHNFAPPMKVKGSGVSQMLYDTIKKIAAEGRKFGIFLVIITQRPGKIDQDVLSQCNSQIILRITNPSDQKAILESSENISESLMSDLPSLDVGEAIIVGEIVKMPVIAKIRQRETEEGGLDVDIVEMLQKARMEAEKRNDPRAIVENVKKLME | not soluble
GSITQPTAINVIFPDPALANAIKIAAGKSNVTDTVTQADLDGITTLSAFGTGVTTIEGVQYLNNLIGLELKDNQITDLAPLKNLTKITELELSGNPLKNVSAIAGLQSIKTLDLTSTQITDVTPLAGLSNLQVLYLDLNQITNISPLAGLTNLQYLSIGNAQVSDLTPLANLSKLTTLKADDNKISDISPLASLPNLIEVHLKNNQISDVSPLANTSNLFIVTLTNQTITNQPVFYNNNLVVPNVVKGPSGAPIAPATISDNGTYASPNLTWNLTSFINNVSYTFNQSVTFKNTTVPFSGTVTQPLTE | soluble
MAHHHHHHMYTRLTELFFISHTFRGRMSSTFCLQPSMMRPLLEQQRRFTSIISRFSSTVTSHVSSLADTHFMPLSEQCITEPRRPYPRRVSMQENLAERLTLQRSLRAHLVPLQVIVSKEKLYIELVWPSAALRAVENQKETMAHTVKGAAADGDDDGNDAALHHAMESPARTVSSGLSQRRPLEEHRTRFLAEFLRAYSPSTDVIGSDVLIYGRRGITITDVIPVGNYALRIVFSDGHSGGIYPYEYLFHLGCEKYSRMREYIRRLRAKHKSRDPPKRAPSQRLSRSRSAQRAEGRHMNSHGQDDQ | not soluble
